The values that follow come from patent publication US20230391859A1 (Novo Nordisk, published 2023).

Assay [1] concerns the target T1, aggregated TTR (UniProt P02766 21-147). As to the kind of experiment: BIACORE (SPR), apparent affinity with avidity; same value in mass units; same KD in mass units.
Assay [2] deals with T1, aggregated TTR. As to the kind of experiment: BIACORE (SPR); off-rate from amyloid (aggregated TTR).
In assay [3] the target is T2, monomeric TTR (UniProt P02766 21-147). As to the kind of experiment: BIACORE (SPR); monomeric TTR (affinity).
For assay [4], the target named is T1, aggregated TTR. As to the kind of experiment: BIACORE (SPR), apparent affinity with avidity; aggregated TTR; apparent affinity (affinity+avidity).
For assay [5], the target named is T2, monomeric TTR. As to the kind of experiment: BIACORE (SPR); off-rate from monomers.

B1: PRX004 (antibody, human IgG1, kappa, V domains shown)
VH: EVQLVESGGGLVQPGGSLKLSCAASGFTFSSYTMSWVRQTPEKRLELVAEINNSGDTTYYPDTVKGRFTISRDNAKNTLYLQMSSLKSEDTAMYYCARHYYYGGGYGGWFFDVWGQGTLVTVSS
VL: DIVMTQSPLSLPVTPGEPASISCRSSKSLLHSNGNTYLYWFLQKPGQSPQLLIYRVSNLASGVPSRFSGSGSGTDFTLKISRVEAEDVGVYYCMQHLEYPLTFGQGTKLEIKR
notes: Humanized IgG1 kappa monoclonal antibody; also called humanized immunoglobulin (Ig) G1 kappa mAb
On to B1, for which the Kd in assay [1] was 0.48 µg/mL; in assay [3], 134 nM; in assay [4], 3.2 nM. Also, the koff in assay [2] is 0.0002 s⁻¹; in assay [5], 0.0037 s⁻¹.
